Source: patent US20220033501A1
Values joined by “and” are separate entries in the source; they are usually repeats but may differ in a detail not shown here. Equal values may be shown once. Each block holds one substance with its values, some of them ahead of it.

Legend:
[1] = target: human TIM-3 protein with hFc tag (hTIM-3-hFc protein) (human) (UniProt Q8TDQ0); experiment: ELISA, hTIM-3-hFc coated at 1 ug/ml; antibody 0.53 nM
[2] = target: human TIM-3 protein with hFc tag (hTIM-3-hFc protein) (human) (UniProt Q8TDQ0); experiment: ELISA, hTIM-3-hFc coated at 1 ug/ml; antibody 0.0043 nM
[3] = target: human TIM-3 protein with hFc tag (hTIM-3-hFc protein) (human) (UniProt Q8TDQ0); experiment: ELISA, hTIM-3-hFc coated at 1 ug/ml; antibody 2.67 nM
[4] = target: human TIM-3 protein with hFc tag (hTIM-3-hFc protein) (human) (UniProt Q8TDQ0); experiment: ELISA, hTIM-3-hFc coated at 1 ug/ml; antibody 13.34 nM
[5] = target: human TIM-3 protein with hFc tag (hTIM-3-hFc protein) (human) (UniProt Q8TDQ0); experiment: ELISA, hTIM-3-hFc coated at 1 ug/ml; antibody 0 nM (blank)
[6] = target: human TIM-3 protein with hFc tag (hTIM-3-hFc protein) (human) (UniProt Q8TDQ0); experiment: ELISA, hTIM-3-hFc coated at 1 ug/ml; antibody 0.021 nM
[7] = target: human TIM-3 protein with hFc tag (hTIM-3-hFc protein) (human) (UniProt Q8TDQ0); experiment: ELISA, hTIM-3-hFc coated at 1 ug/ml; antibody 66.7 nM
[8] = target: human TIM-3 protein with hFc tag (hTIM-3-hFc protein) (human) (UniProt Q8TDQ0); experiment: ELISA, hTIM-3-hFc coated at 1 ug/ml; antibody 0.11 nM
[9] = target: human TIM-3 protein on human PBMC (human) (UniProt Q8TDQ0); experiment: cell-based or functional assay
Sequence of human TIM-3 protein on human PBMC (human) (Q8TDQ0 22-301 limits assumed): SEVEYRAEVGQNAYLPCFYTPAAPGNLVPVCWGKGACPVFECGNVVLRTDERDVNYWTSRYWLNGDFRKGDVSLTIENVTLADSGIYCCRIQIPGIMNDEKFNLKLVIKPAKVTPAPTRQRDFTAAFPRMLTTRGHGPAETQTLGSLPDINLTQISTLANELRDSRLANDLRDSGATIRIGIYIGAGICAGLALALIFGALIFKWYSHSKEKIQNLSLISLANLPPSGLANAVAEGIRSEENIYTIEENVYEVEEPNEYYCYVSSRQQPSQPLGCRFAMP

[10] = target: human TIM-3 protein with hFc tag (hTIM-3-hFc protein) (human) (UniProt Q8TDQ0); experiment: ELISA, coated hTIM-3-hFc; antibody 0.0001 nM
[11] = target: human TIM-3, full length, on cells (human) (UniProt Q8TDQ0); experiment: FACS, CHOK1-hTIM-3 cells; antibody 0.013 nM
Sequence of human TIM-3, full length, on cells (human) (Q8TDQ0 22-301 limits assumed): as above

[12] = target: human TIM-3, full length, on cells (human) (UniProt Q8TDQ0); experiment: FACS, CHOK1-hTIM-3 cells; antibody 40 nM
[13] = target: murine TIM-3 protein with hFc tag (mTIM-3-hFc protein) (mouse; human) (UniProt Q8VIM0); experiment: ELISA, coated mTIM-3-hFc; antibody 66.667 nM
Sequence of murine TIM-3 protein with hFc tag (mTIM-3-hFc protein) (mouse; human) (Q8VIM0 other isoform, or with tags, fused parts or gaps): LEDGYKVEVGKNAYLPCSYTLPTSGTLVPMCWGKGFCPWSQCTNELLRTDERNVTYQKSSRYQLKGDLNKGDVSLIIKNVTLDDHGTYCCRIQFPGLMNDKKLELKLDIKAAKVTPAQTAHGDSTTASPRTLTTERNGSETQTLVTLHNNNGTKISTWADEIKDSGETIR

[14] = target: human TIM-3 protein with hFc tag (hTIM-3-hFc protein) (human) (UniProt Q8TDQ0); experiment: ELISA, coated hTIM-3-hFc; antibody 0.0667 nM
[15] = target: human TIM-3 protein with hFc tag (hTIM-3-hFc protein) (human) (UniProt Q8TDQ0); experiment: ELISA, coated hTIM-3-hFc; antibody 6.6667 nM
[16] = target: human TIM-3, full length, on cells (human) (UniProt Q8TDQ0); experiment: FACS, CHOK1-hTIM-3 cells; antibody 8 nM
[17] = target: murine TIM-3 protein with hFc tag (mTIM-3-hFc protein) (mouse; human) (UniProt Q8VIM0); experiment: ELISA, coated mTIM-3-hFc; antibody 0.0007 nM
[18] = target: human TIM-3, full length, on cells (human) (UniProt Q8TDQ0); experiment: FACS, CHOK1-hTIM-3 cells; antibody 0.32 nM
[19] = target: human TIM-3 protein with hFc tag (hTIM-3-hFc protein) (human) (UniProt Q8TDQ0); experiment: ELISA, coated hTIM-3-hFc; antibody 0.6667 nM
[20] = target: human TIM-3, full length, on cells (human) (UniProt Q8TDQ0); experiment: FACS, CHOK1-hTIM-3 cells; antibody 0 nM (blank)
[21] = target: murine TIM-3 protein with hFc tag (mTIM-3-hFc protein) (mouse; human) (UniProt Q8VIM0); experiment: ELISA, coated mTIM-3-hFc; antibody 0.0067 nM
[22] = target: monkey TIM-3 protein with hFc tag (cTIM-3-hFc protein) (monkey; human); experiment: ELISA, coated cTIM-3-hFc; antibody 0.0067 nM
Sequence of monkey TIM-3 protein with hFc tag (cTIM-3-hFc protein) (monkey; human) (chain, as listed by the source): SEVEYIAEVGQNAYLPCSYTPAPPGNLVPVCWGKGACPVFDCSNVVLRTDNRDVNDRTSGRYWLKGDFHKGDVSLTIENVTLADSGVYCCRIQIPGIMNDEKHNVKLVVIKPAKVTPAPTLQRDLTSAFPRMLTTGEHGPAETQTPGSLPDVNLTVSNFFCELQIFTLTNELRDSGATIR

[23] = target: human TIM-3 protein with hFc tag (hTIM-3-hFc protein) (human) (UniProt Q8TDQ0); experiment: ELISA, coated hTIM-3-hFc; antibody 0.0007 nM
[24] = target: murine TIM-3 protein with hFc tag (mTIM-3-hFc protein) (mouse; human) (UniProt Q8VIM0); experiment: ELISA, coated mTIM-3-hFc; antibody 0.6667 nM
[25] = target: human TIM-3 protein with hFc tag (hTIM-3-hFc protein) (human) (UniProt Q8TDQ0); experiment: ELISA, coated hTIM-3-hFc; antibody 0.0067 nM
[26] = target: murine TIM-3 protein with hFc tag (mTIM-3-hFc protein) (mouse; human) (UniProt Q8VIM0); experiment: ELISA, coated mTIM-3-hFc; antibody 0 nM (blank)
[27] = target: murine TIM-3 protein with hFc tag (mTIM-3-hFc protein) (mouse; human) (UniProt Q8VIM0); experiment: ELISA, coated mTIM-3-hFc; antibody 0.0001 nM
[28] = target: monkey TIM-3 protein with hFc tag (cTIM-3-hFc protein) (monkey; human); experiment: ELISA, coated cTIM-3-hFc; antibody 0.0007 nM
[29] = target: monkey TIM-3 protein with hFc tag (cTIM-3-hFc protein) (monkey; human); experiment: ELISA, coated cTIM-3-hFc; antibody 0.0001 nM
[30] = target: monkey TIM-3 protein with hFc tag (cTIM-3-hFc protein) (monkey; human); experiment: ELISA, coated cTIM-3-hFc; antibody 6.6667 nM
[31] = target: monkey TIM-3 protein with hFc tag (cTIM-3-hFc protein) (monkey; human); experiment: ELISA, coated cTIM-3-hFc; antibody 0.0667 nM
[32] = target: human TIM-3, full length, on cells (human) (UniProt Q8TDQ0); experiment: FACS, CHOK1-hTIM-3 cells; antibody 0.064 nM
[33] = target: human TIM-3, full length, on cells (human) (UniProt Q8TDQ0); experiment: FACS, CHOK1-hTIM-3 cells; antibody 200 nM
[34] = target: human TIM-3, full length, on cells (human) (UniProt Q8TDQ0); experiment: FACS, CHOK1-hTIM-3 cells; antibody 1.6 nM
[35] = target: murine TIM-3 protein with hFc tag (mTIM-3-hFc protein) (mouse; human) (UniProt Q8VIM0); experiment: ELISA, coated mTIM-3-hFc; antibody 0.0667 nM
[36] = target: human TIM-3 protein with hFc tag (hTIM-3-hFc protein) (human) (UniProt Q8TDQ0); experiment: ELISA, coated hTIM-3-hFc; antibody 66.667 nM
[37] = target: monkey TIM-3 protein with hFc tag (cTIM-3-hFc protein) (monkey; human); experiment: ELISA, coated cTIM-3-hFc; antibody 66.667 nM
[38] = target: monkey TIM-3 protein with hFc tag (cTIM-3-hFc protein) (monkey; human); experiment: ELISA, coated cTIM-3-hFc; antibody 0.6667 nM
[39] = target: human TIM-3 protein with hFc tag (hTIM-3-hFc protein) (human) (UniProt Q8TDQ0); experiment: ELISA, coated hTIM-3-hFc; antibody 0 nM (blank)
[40] = target: murine TIM-3 protein with hFc tag (mTIM-3-hFc protein) (mouse; human) (UniProt Q8VIM0); experiment: ELISA, coated mTIM-3-hFc; antibody 6.6667 nM
[41] = target: monkey TIM-3 protein with hFc tag (cTIM-3-hFc protein) (monkey; human); experiment: ELISA, coated cTIM-3-hFc; antibody 0 nM (blank)
[42] = target: monkey TIM-3 on CHOK1 stable cell line (CHOK1-cTIM-3) (monkey); experiment: FACS, CHOK1-cTIM-3 cells, 200 nM antibody
Sequence of monkey TIM-3 on CHOK1 stable cell line (CHOK1-cTIM-3) (monkey) (chain, as listed by the source limits assumed): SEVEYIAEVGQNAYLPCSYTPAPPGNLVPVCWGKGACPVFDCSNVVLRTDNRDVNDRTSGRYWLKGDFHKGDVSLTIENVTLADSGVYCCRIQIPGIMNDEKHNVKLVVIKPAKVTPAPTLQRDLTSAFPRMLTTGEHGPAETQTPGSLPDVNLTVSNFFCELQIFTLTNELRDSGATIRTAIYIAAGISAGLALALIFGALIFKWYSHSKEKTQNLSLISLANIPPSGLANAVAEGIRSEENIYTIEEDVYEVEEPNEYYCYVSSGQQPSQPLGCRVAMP

[43] = target: monkey TIM-3 on CHOK1 stable cell line (CHOK1-cTIM-3) (monkey); experiment: FACS, CHOK1-cTIM-3 cells, 0.064 nM antibody
[44] = target: TIM-3 protein on human peripheral blood mononuclear lymphocytes (PBMC) (human) (UniProt Q8TDQ0); experiment: cell-based or functional assay
Sequence of TIM-3 protein on human peripheral blood mononuclear lymphocytes (PBMC) (human) (Q8TDQ0 22-301 limits assumed): as the sequence (Q8TDQ0 22-301 limits assumed) above

[45] = target: monkey TIM-3 on CHOK1 stable cell line (CHOK1-cTIM-3) (monkey); experiment: FACS, CHOK1-cTIM-3 cells, 0 nM antibody
[46] = target: monkey TIM-3 on CHOK1 stable cell line (CHOK1-cTIM-3) (monkey); experiment: FACS, CHOK1-cTIM-3 cells, 8 nM antibody
[47] = target: monkey TIM-3 on CHOK1 stable cell line (CHOK1-cTIM-3) (monkey); experiment: FACS, CHOK1-cTIM-3 cells, 1.6 nM antibody
[48] = target: monkey TIM-3 on CHOK1 stable cell line (CHOK1-cTIM-3) (monkey); experiment: FACS, CHOK1-cTIM-3 cells, 0.013 nM antibody
[49] = target: monkey TIM-3 on CHOK1 stable cell line (CHOK1-cTIM-3) (monkey); experiment: FACS, CHOK1-cTIM-3 cells, 0.32 nM antibody
[50] = target: monkey TIM-3 on CHOK1 stable cell line (CHOK1-cTIM-3) (monkey); experiment: FACS, CHOK1-cTIM-3 cells, 40 nM antibody

Sequence of human TIM-3 protein with hFc tag (hTIM-3-hFc protein) (human) (Q8TDQ0 22-200): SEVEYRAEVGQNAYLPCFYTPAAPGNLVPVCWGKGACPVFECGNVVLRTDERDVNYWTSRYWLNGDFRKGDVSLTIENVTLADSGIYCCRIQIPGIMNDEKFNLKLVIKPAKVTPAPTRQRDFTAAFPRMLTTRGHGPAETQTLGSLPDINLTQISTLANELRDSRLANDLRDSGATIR

OD450 nm [1]: 3.52 and 3.38 | OD450 nm [2]: 0.92 and 0.86 | OD450 nm [3]: 3.42 and 3.32 | OD450 nm [4]: 3.45 and 3.42 | OD450 nm [5]: 0.6 and 0.59 | OD450 nm [6]: 1.78 and 1.75 | OD450 nm [7]: 3.48 and 3.44 | OD450 nm [8]: 3.23 and 3.27
Substance: commercially available anti-TIM-3 antibody (R&D system, MAB2365)

IFN-γ production, lymphocyte activation assay (donor Y), negative control IgG 0.1 µg/ml, N = 1 [9]: 2100 pg/mL | IFN-γ production, lymphocyte activation assay (donor Y), negative control IgG 0.1 µg/ml, N = 2 [9]: 2020 pg/mL | IFN-γ production, lymphocyte activation assay (donor Y), negative control IgG 1 µg/ml, N = 1 [9]: 2190 pg/mL | IFN-γ production, lymphocyte activation assay (donor Y), negative control IgG 1 µg/ml, N = 2 [9]: 1770 pg/mL | IFN-γ production, lymphocyte activation assay (donor Y), negative control IgG 10 µg/ml, N = 1 [9]: 1930 pg/mL | IFN-γ production, lymphocyte activation assay (donor Y), negative control IgG 10 µg/ml, N = 2 [9]: 1980 pg/mL | IFN-γ production, lymphocyte activation assay (donor Y), negative control IgG, concentration head printed '0' (fifth), N = 1 [9]: 2000 pg/mL | IFN-γ production, lymphocyte activation assay (donor Y), negative control IgG, concentration head printed '0' (fifth), N = 2 [9]: 2070 pg/mL | IFN-γ production, lymphocyte activation assay (donor Y), negative control IgG, concentration head printed '0' (fourth), N = 1 [9]: 1990 pg/mL | IFN-γ production, lymphocyte activation assay (donor Y), negative control IgG, concentration head printed '0' (fourth), N = 2 [9]: 2160 pg/mL
Substance: hIgG control (human IgG) (antibody)

OD450 nm [1]: 0.63 and 0.65 | OD450 [10]: 0.11 | Mean fluorescence intensity [11]: 3 | OD450 nm [2]: 0.63 and 0.59 | Mean fluorescence intensity [12]: 3.3 | OD450 nm [3]: 0.69 and 0.58 | OD450 [13]: 0.75 | OD450 [14]: 0.12 | OD450 [15]: 0.13 | OD450 nm [4]: 0.63 | Mean fluorescence intensity [16]: 3.1 | OD450 [17]: 0.67 | Mean fluorescence intensity [18]: 3 | OD450 [19]: 0.13 | OD450 nm [5]: 0.61 and 0.59 | Mean fluorescence intensity [20]: 3 | OD450 [21]: 0.62 | OD450 [22]: 0.57 | OD450 [23]: 0.12 | OD450 [24]: 0.66 | OD450 [25]: 0.12 | OD450 [26]: 0.6 | OD450 [27]: 0.63 | OD450 [28]: 0.55 | OD450 [29]: 0.54 | OD450 [30]: 0.58 | OD450 [31]: 0.54 | Mean fluorescence intensity [32]: 3 | Mean fluorescence intensity [33]: 3.8 | OD450 nm [6]: 0.55 and 0.58 | Mean fluorescence intensity [34]: 3 | OD450 nm [7]: 0.72 and 0.7 | OD450 [35]: 0.64 | OD450 [36]: 0.22 | OD450 [37]: 0.68 | OD450 [38]: 0.55 | OD450 nm [8]: 0.6 and 0.59 | OD450 [39]: 0.11 | OD450 [40]: 0.65 | OD450 [41]: 0.55
Substance: rat IgG (negative control antibody)

Mean fluorescence intensity [42]: 4.8 | Mean fluorescence intensity [43]: 3.4 | IFN production; antibody 0.001 µg/ml (4th head as printed), N = 1 [44]: 738 pg/mL | IFN production; antibody 0.001 µg/ml (4th head as printed), N = 2 [44]: 786 pg/mL | IFN production; antibody 0.001 µg/ml (5th head as printed), N = 1 [44]: 727 pg/mL | IFN production; antibody 0.001 µg/ml (5th head as printed), N = 2 [44]: 714 pg/mL | IFN production; antibody 0.1 µg/ml, N = 1 [44]: 718 pg/mL | IFN production; antibody 0.1 µg/ml, N = 2 [44]: 664 pg/mL | IFN production; antibody 1 µg/ml, N = 1 [44]: 694 pg/mL | IFN production; antibody 1 µg/ml, N = 2 [44]: 574 pg/mL | IFN production; antibody 10 µg/ml, N = 1 [44]: 620 pg/mL | IFN production; antibody 10 µg/ml, N = 2 [44]: 582 pg/mL | Mean fluorescence intensity [45]: 3.2 | Mean fluorescence intensity [46]: 3.8 | Mean fluorescence intensity [47]: 3.6 | Mean fluorescence intensity [48]: 3.3 | Mean fluorescence intensity [49]: 3.5 | Mean fluorescence intensity [50]: 3.7
Substance: rat IgG control (antibody)
